Our source for the Kd values is paper PMC13335484.

Data set [1] concerns the target T1, Gh-TDH wild-type (Grimontia hollisae, UniProt A0A377HK12 25-189). The data set is described as follows: BLI; 50 mM EDTA. To be noted: protein: recombinant, chain copies: 4, label: 5'-biotin. (BLI is a label-free optical method that tracks binding on a fibre tip over time.)
Data set [2] concerns the target T1, Gh-TDH wild-type. The data set can be described thus: BLI; 50 mM EDTA; BLI: PBS pH 7.4, 50 mM EDTA, 1 mg/mL BSA, 1000 rpm, temperature not stated; crystals: protein:ssDNA 1:1.3, hanging drop, 20 C. To be noted: protein: recombinant; chain copies: 4; label: 5'-biotin.

B1: poly(dC12) (ssDNA)
DNA: CCCCCCCCCCCC
Regarding B1, the Kd in data set [1] was ~3.08 µM.

B2: poly(dA12) (ssDNA)
DNA: AAAAAAAAAAAA
On to B2, for which the equilibrium dissociation constant (Kd) in data set [2] is ~3.08 µM.

B3: stem-loop dsDNA with 4-nt 3'-overhang (structured_DNA)
DNA: CTCTATAGAGTTTTCTCTATAGAGTTCT
With B3, in data set [1] (hairpin, 3' overhang 4 nt), the Kd was determined as 14.8 µM.

B4: poly(dT12) (ssDNA)
DNA: TTTTTTTTTTTT
Turning to B4, the Kd in data set [1] was ~3.08 µM.

The term Kd denotes a measure of binding affinity in units of concentration.
